Experimental data: patent publication US20140161804A1 (AbbVie / Abbott, published 2014)

Assays:
Human TNF = biological target: T1, Human TNF (human, UniProt P01375 77-233); assay: ELISA, captured DVD-Ig, biotin-human TNF titrated
T1 construct: Biotinylated in the ELISA; purified recombinant protein in SPR; also called h TNF; huTNF
Description: (§1) The following protocol is used to characterize the binding of TNF/IL-17 DVD-Ig proteins to human TNF and IL-17 by enzyme-linked immunosorbent assay (ELISA). An ELISA plate was coated with 50 μl per well of goat anti mouse IgG-Fc at 2 μg/ml, overnight at 4° C. The plate was washed 3 times with PBS/Tween. 50 μl Mab diluted to 1 μg/ml in PBS/0.1% BSA was added to appropriate wells and incubated for 1 hour at room temperature (RT). The plate was washed 3 times with PBS/Tween. 50 μl of serial diluted biotin-human TNF or IL-17 was added to appropriate wells and incubated for 1 hour at RT. The plate was washed 3 times with PBS/Tween. 50 μl of streptavidin-HRP diluted 1:10,000 in PBS/0.1% BSA was added to appropriate wells and incubated for 1 hour at RT. The plate was washed 3 times with PBS/Tween. 50 μl of TMB was added to appropriate wells and the reaction allowed to proceed for 1 minute. The reaction was stopped with 50 μl/well 2N H₂SO₄ and the absorbance read at 450 nm.

Human IL-17A [1] = biological target: T2, Human IL-17A (human, UniProt Q16552 20-155, limits assumed); assay: ELISA, captured DVD-Ig, biotin-human IL-17 titrated
T2 construct: Biotinylated in the ELISAs; purified recombinant protein in SPR; also called hIL17A; hIL-17
T2 sequence (Q16552 20-155 limits assumed): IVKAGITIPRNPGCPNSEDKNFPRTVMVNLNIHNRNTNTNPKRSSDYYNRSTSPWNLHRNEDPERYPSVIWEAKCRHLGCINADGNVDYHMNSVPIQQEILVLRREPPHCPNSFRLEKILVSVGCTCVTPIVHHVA
Description: as §1

Human IL-17A [2] = biological target: T2, Human IL-17A; assay: ELISA, captured antibody, biotin-human IL-17 titrated
Description: as §1, with “IL-17 antibodies” for “TNF/IL-17 DVD-Ig proteins”, “human” for “human TNF and”, “biotin-human” for “biotin-human TNF or”

Human IL-17A [3] = biological target: T2, Human IL-17A; assay: SPR (Biacore T200), antibody captured by anti-human IgG Fc, antigen in solution
Description: (§2) The binding of antibodies to purified recombinant IL-17 proteins was determined by surface plasmon resonance-based measurements with a Biacore® T200 instrument (GE Healthcare) using running HBS-EP (10 mM HEPES [pH 7.4], 150 mM NaCl, 3 mM EDTA, and 0.005% surfactant P20) containing 0.1 mg/ml BSA at 25° C. All chemicals were obtained from Biacore® AB (GE Healthcare) or otherwise from a source as described in the text. Approximately 5000 RU of goat anti-human IgG (Fcg) fragment specific polyclonal antibody (Pierce Biotechnology Inc, Rockford, Ill.) diluted in 10 mM sodium acetate (pH 4.5) was directly immobilized across a CM5 research grade biosensor chip using a standard amine coupling kit according to manufacturer's instructions and procedures at 25 μg/ml. Unreacted moieties on the biosensor surface were blocked with ethanolamine. Modified carboxymethyl dextran surface in flowcell 2, 3 and 4 were used as a reaction surface. Modified carboxymethyl dextran with Goat IgG in flow cell 1 was used as the reference surface. For kinetic analysis, rate equations derived from the 1:1 Langmuir binding model were fitted simultaneously to association and dissociation phases of all six injections (using global fit analysis with local float for Rmax) with the use of Biacore T200 Evaluation software v.1.0. Purified antibodies were diluted in HEPES-buffered saline for capture across goat anti-human IgG specific reaction surfaces. Antibodies to be captured as ligand (1-5 μg/ml) were injected over reaction matrices at a flow rate of 50 μl/minute. Association phase was monitored for 5 minute, while dissociation phase was monitored for 10-60 min to accommodate for slower off-rates. The association and dissociation rate constants, ka (unit M-1 s-1) and kd (unit s-1) were determined under a continuous flow rate of 50 μl/minute. Rate constants were derived by making kinetic binding measurements at six different antigen concentrations ranging from 0.78 nM to 100 nM, depending on the species of IL-17 tested. The association ka, dissociation rate kd and equilibrium dissociation constant KD were calculated with the use of the same Biacore T200 Evaluation software v.1.0.

Cynomolgus monkey IL-17A = biological target: T3, Cynomolgus monkey IL-17A (cynomolgus monkey, UniProt A0A2K5TTB0 24-155); assay: as above
T3 construct: also called Cyno IL-17AA; Cyno IL17AA
T3 sequence (A0A2K5TTB0 entry or part of it): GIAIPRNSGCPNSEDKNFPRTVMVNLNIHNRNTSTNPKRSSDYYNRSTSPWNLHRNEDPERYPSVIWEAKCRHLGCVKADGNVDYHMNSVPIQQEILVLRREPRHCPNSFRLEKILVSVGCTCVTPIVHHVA
Description: as §2

T1 sequence (P01375 77-233 limits assumed): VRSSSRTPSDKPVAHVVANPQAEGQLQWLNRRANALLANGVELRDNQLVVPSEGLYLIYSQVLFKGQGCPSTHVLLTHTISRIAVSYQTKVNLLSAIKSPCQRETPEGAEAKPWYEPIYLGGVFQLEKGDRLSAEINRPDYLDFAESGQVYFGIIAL

| Binder | EC50 (Human TNF) | EC50 (Human IL-17A [1]) | EC50 (Human IL-17A [2]) | Kd (Human IL-17A [3]) | koff (Human IL-17A [3]) | kon (Human IL-17A [3]) | Kd (Cynomolgus monkey IL-17A) | koff (Cynomolgus monkey IL-17A) | kon (Cynomolgus monkey IL-17A) |
| --- | --- | --- | --- | --- | --- | --- | --- | --- | --- |
| hMAK199-1-h10F7-M10.8 QL DVD-Ig (bispecific antibody, human IgG1, kappa, L234A L235A, DVD-Ig; IgG1 (234,235) mut with QL mutations, kappa; GS10 linkers) heavy: EVQLVQSGAEVKKPGASVKVSCKASGYTFANYGIIWVRQAPGQGLEWMGWINTYTGKPTYAQKFQGRVTMTTDTSTSTAYMELSSLRSEDTAVYYCARKLFTTMDVTDNAMDYWGQGTTVTVSSGGGGSGGGGSEVQLVQSGAEVKKPGSSVKVSCKASGYTFDDYEIHWVRQAPGQGLEWIGVNDPESGGTFYNQKFDGRATLTADKSTSTAYMELSSLRSEDTAVYYCTRYDKWDSFYGMDYWGQGTTVTVSSASTKGPSVFPLAPSSKSTSGGTAALGCLVKDYFPEPVTVSWNSGALTSGVHTFPAVLQSSGLYSLSSVVTVPSSSLGTQTYICNVNHKPSNTKVDKKVEPKSCDKTHTCPPCPAPEAAGGPSVFLFPPKPKDQLMISRTPEVTCVVVDVSHEDPEVKFNWYVDGVEVHNAKTKPREEQYNSTYRVVSVLTVLHQDWLNGKEYKCKVSNKALPAPIEKTISKAKGQPREPQVYTLPPSREEMTKNQVSLTCLVKGFYPSDIAVEWESNGQPENNYKTTPPVLDSDGSFFLYSKLTVDKSRWQQGNVFSCSVLHEALHNHYTQKSLSLSPGK light: DIQMTQSPSSLSASVGDRVTITCRASQDISQYLNWYQQKPGKAPKLLIYYTSRLQSGVPSRFSGSGSGTDFTLTISSLQPEDFATYFCQQGNTWPPTFGQGTKLEIKRGGSGGGGSGDIQMTQSPSSLSASVGDRVTITCSASSGSISYIDWFQQKPGKAPKRLIYATFELASGVPSRFSGSGSGTDFTLTISSLQPEDFATYYCHQLGSYPDTFGQGTKLEIKRTVAAPSVFIFPPSDEQLKSGTASVVCLLNNFYPREAKVQWKVDNALQSGNSQESVTEQDSKDSTYSLSSTLTLSKADYEKHKVYACEVTHQGLSSPVTKSFNRGEC | 0.183 nM | 0.063 nM |  |  |  |  |  |  |  |
| IL17-h10F7M-B20 hIgG1/K mut (antibody, V domains shown, Full length human IgG1/kappa, IgG1 mut(234,235); also called h10F7-B20; J439M1S2(H)3 #B20) VH: EVQLVQSGAEVKKPGSSVKVSCKASGYTFTDYEIHWVRQAPGQGLEWMGVNDPESGGTFYNQKFDGRVTLTADESTSTAYMELSSLRSEDTAVYYCTRYDKWYSFEGMDIWGQGTTVTVSS VL: DIQMTQSPSSLSASVGDRVTITCRASSGIISYIDWFQQKPGKAPKRLIYATFDLASGVPSRFSGSGSGTDYTLTISSLQPEDFATYYCRQVGSYPETFGQGTKLEIK |  |  | 0.07 nM | 0.00214 nM | 6.27e-06 s⁻¹ | 2.92e+06 M⁻¹ s⁻¹ |  |  |  |
| IL17-h10F7M11 hIgG1/K mut (antibody, V domains shown, Full length human IgG1/kappa, IgG1 mut(234,235); also called J439M1S3R5#11; PR-1263009) VH: EVQLVQSGAEVKKPGSSVKVSCKASGYTFTDYEIHWVRQAPGQGLEWMGVNDPESGGTFYNQKFDGRVTLTADESTSTAYMELSSLRSEDTAVYYCTRYSKWDSFDGMDYWGQGTTVTVSS VL: DIQMTQSPSSLSASVGDRVTITCRASSGIISYIDWFQQKPGKAPKRLIYATFDLASGVPSRFSGSGSGTDYTLTISSLQPEDFATYYCRQVGSYPETFGQGTKLEIK |  |  | 0.04 nM | 0.00159 nM | 7.24e-06 s⁻¹ | 4.53e+06 M⁻¹ s⁻¹ | 0.00086 nM | 3.88e-06 s⁻¹ | 4.5e+06 M⁻¹ s⁻¹ |
| IL17-h10F7M-A6 hIgG1/K mut (antibody, V domains shown, Full length human IgG1/kappa, IgG1 mut(234,235); also called h10F7-A6; J439M1S2(H)3 #A6) VH: EVQLVQSGAEVKKPGSSVKVSCKASGYTFTDYEIHWVRQAPGQGLEWIGVNDPDSGGTLYNQKFDGRVTLTADESTSTAYMELSSLRSEDTAVYYCTRYDKWYSFEGMDIWGQGTTVTVSS VL: DIQMTQSPSSLSASVGDRVTITCSASQGIRSYIDWFQQKPGKSPKRLIYATFDLASGVPSRFSGSGSGTDYTLTISSLQPEDFATYYCRQVGNYPGTFGQGTKLEIK |  |  | 0.08 nM | 0.0015 nM | 4.48e-06 s⁻¹ | 2.99e+06 M⁻¹ s⁻¹ |  |  |  |
| IL17-h10F7M-A11 hIgG1/K mut (antibody, V domains shown, Full length human IgG1/kappa, IgG1 mut(234,235); also called h10F7-A11; J439M1S2(H)3 #A11) VH: EVQLVQSGAEVKKPGSSVKVSCKASGYTFTDYEIHWVRQAPGQGLEWIGVNDPESGGTFYNQKFDGRVTLSADESTSTAYMELSSLRSEDTAVYYCTRYDKYWSFEGMDYWGQGTTVTVSS VL: DIQMTQSPSSLSASVGDRVTITCRASSGIISYIDWFQQKPGKAPKRLIYATFDLASGVPSRFSGSGSGTDYTLTISSLQPEDFATYYCRQVGSYPETFGQGTKLEIK |  |  | 0.04 nM | 0.0021 nM | 7.68e-06 s⁻¹ | 3.64e+06 M⁻¹ s⁻¹ |  |  |  |
| IL17-h10F7M-A16 hIgG1/K mut (antibody, V domains shown, Full length human IgG1/kappa, IgG1 mut(234,235); also called h10F7-A16; J439M1S2(H)3 #A16) VH: EVQLVQSGAEVKKPGSSVKVSCKASGYTFSDYEIHWVRQAPGQGLEWMGVNDPESGGTFYNQKFDGRVTLTADESTSTAYMELSSLRSEDTAVYYCTRYDKWYSFEGMDIWGQGTTVTVSS VL: DIQMTQSPSSLSASVGDRVTITCSASQGIRSYIDWFQQKPGKSPKRLIYATFDLASGVPSRFSGSGSGTDYTLTISSLQPEDFATYYCRQVGNYPGTFGQGTKLEIK |  |  | 0.07 nM | 0.00151 nM | 4.52e-06 s⁻¹ | 2.99e+06 M⁻¹ s⁻¹ |  |  |  |
| IL17-h10F7M-B13 hIgG1/K mut (antibody, V domains shown, Full length human IgG1/kappa, IgG1 mut(234,235); also called h10F7-B13; J439M1S2(H)3 #B13) VH: EVQLVQSGAEVKKPGSSVKVSCKASGYTFSDYEIHWVRQAPGQGLEWMGVNDPESGGTFYNQKFDGRVTLTADESTSTAYMELSSLRSEDTAVYYCTRYDKYWSFEGMDYWGQGTTVTVSS VL: DIQMTQSPSSLSASVGDRVTITCRASSGIISYIDWFQQKPGKAPKRLIYATFDLASGVPSRFSGSGSGTDYTLTISSLQPEDFATYYCRQVGSYPETFGQGTKLEIK |  |  | 0.06 nM | 0.00256 nM | 6.88e-06 s⁻¹ | 2.68e+06 M⁻¹ s⁻¹ |  |  |  |
| IL17-h10F7M10 hIgG1/K mut (antibody, V domains shown, Full length human IgG1/kappa, IgG1 mut(234,235) (HC plasmid pHybE-hCg1,z,non-a,mut(234,235); LC pHybE-hCk); also called J439M1S3R5#10; PR-1262986) VH: EVQLVQSGAEVKKPGSSVKVSCKASGYTFDDYEIHWVRQAPGQGLEWIGVNDPESGGTFYNQKFDGRATLTADKSTSTAYMELSSLRSEDTAVYYCTRYDKWDSFYGMDYWGQGTTVTVSS VL: DIQMTQSPSSLSASVGDRVTITCSASSGSISYIDWFQQKPGKAPKRLIYATFELASGVPSRFSGSGSGTDFTLTISSLQPEDFATYYCHQLGSYPDTFGQGTKLEIK |  |  | 0.03 nM | 0.00153 nM | 6.8e-06 s⁻¹ | 4.45e+06 M⁻¹ s⁻¹ | 0.00106 nM | 4.4e-06 s⁻¹ | 4.14e+06 M⁻¹ s⁻¹ |
